Measurements published in article PMC8626469 (2021).

Tests used:
[1] = molecular target: Helicobacter pylori FabX R164A (H. pylori); assay: ITC
[2] = molecular target: T1, Helicobacter pylori FabX (H. pylori); assay: ITC
T1 chain: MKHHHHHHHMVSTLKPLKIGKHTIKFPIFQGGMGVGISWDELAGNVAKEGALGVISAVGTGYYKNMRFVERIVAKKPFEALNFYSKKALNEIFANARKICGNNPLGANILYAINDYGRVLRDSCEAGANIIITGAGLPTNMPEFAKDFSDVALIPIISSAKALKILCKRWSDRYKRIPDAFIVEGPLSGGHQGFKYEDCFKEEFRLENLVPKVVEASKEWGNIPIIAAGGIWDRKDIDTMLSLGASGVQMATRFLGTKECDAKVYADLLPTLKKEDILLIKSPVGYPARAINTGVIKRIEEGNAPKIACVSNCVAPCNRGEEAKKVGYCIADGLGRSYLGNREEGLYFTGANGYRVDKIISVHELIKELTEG

B1: Helicobacter pylori holo-acyl carrier protein (natural protein)
chain: MALFEDIQAVIAEQLNVDAVQVTPEAEFVKDLGADSLDVVELIMALEEKFGVEIPDEQAEKIINVGDVVKYIEDNKLA
modifications: phosphopantetheine group (PPant) on Ser36
- Kd [1]: > 200000 nM
- Kd [2]: 1640 nM
